Target: CCA1-GST (UniProt P92973)
Test: EMSA
Settings: 25 mM HEPES-KOH pH 7.5, 50 mM KCl, 2.5 mM DTT, 1 mM PMSF, 10% glycerol, 1 ug poly-dIdC in 10 ul, 20 min on ice (final concentrations calculated from 5X …)

Chain of CCA1-GST (P92973 whole entry): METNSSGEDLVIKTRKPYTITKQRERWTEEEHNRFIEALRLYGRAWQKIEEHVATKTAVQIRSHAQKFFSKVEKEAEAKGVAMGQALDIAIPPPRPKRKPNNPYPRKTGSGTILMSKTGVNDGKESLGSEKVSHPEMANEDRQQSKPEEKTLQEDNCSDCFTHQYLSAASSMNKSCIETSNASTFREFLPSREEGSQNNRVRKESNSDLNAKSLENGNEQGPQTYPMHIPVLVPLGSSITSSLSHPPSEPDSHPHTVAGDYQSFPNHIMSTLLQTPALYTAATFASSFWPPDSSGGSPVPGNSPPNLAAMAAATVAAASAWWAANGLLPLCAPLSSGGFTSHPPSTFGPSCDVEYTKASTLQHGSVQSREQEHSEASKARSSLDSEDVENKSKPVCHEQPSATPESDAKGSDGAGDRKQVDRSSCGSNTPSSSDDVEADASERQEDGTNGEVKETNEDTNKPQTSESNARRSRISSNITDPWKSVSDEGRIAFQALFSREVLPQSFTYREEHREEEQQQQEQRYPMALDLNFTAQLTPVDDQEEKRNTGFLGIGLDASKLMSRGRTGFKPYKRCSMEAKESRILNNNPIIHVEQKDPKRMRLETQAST

Sequence	binding
AATCAATTCCTCTCTCTTAAAACAAAGAAGAAAAAAACAGAGAAGAAGAAGAAAAAATCTATCTCCGCCATGAACGCGAGAGCTCTTCTTTGCTCTTCAAATATTCACTCTCTCTAC (double strand) [PHT4;1 promoter probe 3]	binds
GTTAGCTTACGAGCATAAATTGCGAGATCTATCTTACTTCCCCAATGAAAAAAAAATCTCAAAGATTTGGAAGTAGACCTATGAATAGAATTACAATAATACGGCAATACCAATAACAA (double strand) [PHT4;1 promoter probe 2]	binds
